Measured values taken from the supplement of paper PMC9170038.

Key:
MS2 coat protein [1] = experiment: apparent KD of MS2 coat protein, switch OFF state (with FMN for OFF switches, without FMN for ON switches); designed switch direction (-1 OFF switch, 1 ON switch): -1; higher = weaker reporter binding; conditions: FMN input: 0 or 200 uM; Eterna round: R93 (includes R88 designs)
In short: (§1)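 Designed RNA switches were transcribed on-chip from Illumina sequencing clusters. They were then titrated with SNAP-549-labelled MS2 coat protein (twofold steps, 0.7 or 1.5 nM to 3 µM; 0.8–1.5 h to 10–20 min per step) in 100 mM Tris-HCl pH 7.5, 80 mM KCl, 4 mM MgCl2, without or with constant ligand. Apparent KD is the per-design median of normalised cluster binding-curve fits.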

MS2 coat protein [2] = experiment: apparent KD of MS2 coat protein, switch ON state; designed switch direction (-1 OFF switch, 1 ON switch): -1; higher = weaker reporter binding; conditions: FMN input: 0 or 200 uM; Eterna round: R93 (includes R88 designs)
In short: as §1

Row | Sequence | apparent KD of MS2 coat protein (MS2 coat protein [1]) [nM] | apparent KD of MS2 coat protein (MS2 coat protein [2]) [nM]
1 | AGAAAGACAGGAUAUACAUGAGGAUCACCCAUGUAAAAGAAAGAAAAGGGAAAGAAAAGUAGAAGGGUCAAAGA [Ruby 64] | 42.1 | 22.1
2 | AAGAAGAUAGGAUAUACAAAAUAAAAGAAAAGAAAGAAAGAACAUGAGGAUCACCCAUGUAGAAGGGUCAAGAA [Kheperkare Senusret I] | 56.5 | 54.6
3 | AACAGCACAGGAUAUACAUGAGGAUCACCCAUGUGAGAAUUAAGUGGCGUACCACAAAGUAGAAGGGUGCUGGA [Mat - Exclusion 3 - JL mod - D39] | 203 | 35.9
4 | AAGAAGAUAGGAUAUACAAGAAAGAAAGAAAAGAAAAGAAAACAUGAGGAUCACCCAUGUAGAAGGAUCUAGAA [EteRNA is fun!] | 15.9 | 30.8
5 | AAAAAACAUGAGGAUCACCCAUGUGAGGAUAUCCAAAACAAAAAAAAACAAAACAAAAGGAGAAGGCACAUAAA [Amethyst 54] | 43.1 | 58.8
6 | AAAAAACAUGAGGAUCACCCAUGUAAGGAUAUGCUAAAAAACACGGAAAAACGUGAUAGCAGAAGGUACAAAAA [66%, Wbt, 31] | 33.4 | 22.6
7 | AAAAAACAUGAGGAUCACCCAUGUAAGGAUAUCGUGCAGAAAAAAAAAAAAAACUGCACGAGAAGGUACUUGGA [Brourd - Exclusion 1 - Sub 3] | 87.9 | 43.1
8 | GAAAAGGUAGGAUAUACGAAAAAAAAGGGUAAAAAAUAAAAACAUGAGGAUCACCCAUGUAGAAGGACCAAAAG [Mat - Exclusion 2 - Tesla mod - D40] | 55.3 | 28.8
9 | AAGACUACAGGAUAUACAUGAGGAUCACCCAUGUAACUGACAAGUAGAGUACGGAGAAGUAGAAGGGUAGUCAA [Ruby 34] | 17.6 | 14.9
10 | AAAAGCACAGGAUAUACGGGAUUAUGACGAAAGUCAUAAAAACAUGAGGAUCACCCAUGUAGAAGGGUGCAAAA [Mod of Meechl's... 64% 2] | 248 | 191
11 | AGUGAGUGAGGAUAUCACUGAAGAAUAAAAGAAAUAACGAGUGAGAAGGCACAUGAGGAUCACCCAUGUACACA [May 63] | 18.3 | 24.1
12 | AAGAAGUCAGGAUAUACAUGAGGAUCACCCAUGUAAAAGAAAGAAAGGGAAAAGAAAAGUAGAAGGGACAAGAA [Usermaatre-akhenamun Ramesses VIII] | 25.5 | 18.2
13 | AAAAAACAUGAGGAUCACCCAUGUGAGGAUAUUCAAAAAAAAAAAAAAAACACAAGAAGGAGAAGGCACAAAAA [Default title] | 73 | 29.6
14 | CGCAAACAUGAGGAUCACCCAUGUGAGGAUAUGUGAGCACGAGAAAGAUAAAGUGAGCACAGAAGGCACAAGCG [JR_Exclusion1_Sub6] | 27.3 | 34.8
15 | AGCUAACAUGAGGAUCACCCAUGUCAGGAUAUGCAAAGAUCGAUCGAACGAUCGAUAAGCAGAAGGGACACUGA [Amethyst 94] | 47.5 | 27.1
16 | AAAAAUGCAGGAUAUACGUACAUGUCAAAAGACGUGAAGGGACAUGAGGAUCACCCAUGUAGAAGGGUAAAGAA [JL Neck Breaker 15] | 59.8 | 237
17 | AGCUAGUGAGGAUAUACGAACACGUAACAGGACUGUAAGGGACAUGAGGAUCACCCAUGUAGAAGGCACUAGCA [Diamond 61] | 77 | 33.9
18 | AGAAAACAUGAGGAUCACCCAUGUCAGGAUAUGUAAAAGAAAAGAAAAGAAAGAAGAAGCAGAAGGGACAAGAA [Sekhemkhet] | 36.8 | 28.8
19 | AAGAAACAUGAGGAUCACCCAUGUAAGGAUAUGAAAAAGAAAAGAAAAGAAAGAAGAAUCAGAAGGUACAAAGG [Nakhtnebtepnefer Intef III] | 26.1 | 24.1
20 | AAGAAGUCAGGAUAUACAUGAGGAUCACCCAUGUAAAAGAAAGAAGGGAAAGAGAAAAGUAGAAGGGACAAGAA [Usermaatre-setpenamun Takelot III] | 19.9 | 31.9
21 | AACAGUACAGGAUAUACAUGAGGAUCACCCAUGUGAAAAUUAAGUGGAAAACCACAAGGUAGAAGGGUACUGGA [Mat - Exclusion 3 - Eli mod - D63] | 78.7 | 21.6
22 | AGAGGACAUGAGGAUCACCCAUGUGAGGAUAUGCAAAACUAAGGACAAGAUCGGUAUAGCAGAAGGCACGUAGU [JR_EXc001_Sub808] | 78.2 | 46.7
23 | AAGAAACAUGAGGAUCACCCAUGUCAGGAUAUGCAGGACUGACGAAAGUCAGUCCAAAGCAGAAGGGACUAGAA [8-pair stack] | 56.5 | 29.9
